Measured values as given in patent US20240294650A1 (Alector, published 2024).

Columns and labels:
[1] = molecular target: T1, recombinant murine MerTK extracellular domain (mouse, UniProt Q60805 19-497); assay: SPR Carterra LSA, Ab immobilised
T1 construct: also called Mouse MerTK; murine MerTK ECD; not shown: polyHis or TEVS/Thrombin/murine IgG2a-Fc tag
T1 sequence: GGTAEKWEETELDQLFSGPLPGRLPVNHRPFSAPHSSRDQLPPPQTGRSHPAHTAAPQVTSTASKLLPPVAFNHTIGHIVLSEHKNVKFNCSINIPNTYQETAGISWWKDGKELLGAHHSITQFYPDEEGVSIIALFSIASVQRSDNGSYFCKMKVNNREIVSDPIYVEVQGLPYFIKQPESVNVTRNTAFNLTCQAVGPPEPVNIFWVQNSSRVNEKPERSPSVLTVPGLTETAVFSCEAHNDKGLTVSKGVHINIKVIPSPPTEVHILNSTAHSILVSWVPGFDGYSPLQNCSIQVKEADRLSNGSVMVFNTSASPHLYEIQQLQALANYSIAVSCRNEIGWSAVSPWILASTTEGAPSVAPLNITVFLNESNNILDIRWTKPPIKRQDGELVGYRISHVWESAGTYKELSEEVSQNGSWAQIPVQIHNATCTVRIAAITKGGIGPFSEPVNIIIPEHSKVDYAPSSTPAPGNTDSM
Protocol: Binding kinetics of anti-MerTK IgG1 antibodies of the present disclosure to human, cyno, and murine MerTK were evaluated using a Carterra LSA instrument (Carterra, Salt Lake City, UT). […] A HC200M sensor chip (Carterra) was activated using the single channel flow cell with a 7-minute injection of a 1:1:1 mixture of 100 mM MES pH 5.5, 100 mM sulfo-NHS, 400 mM EDC (all reconstituted in MES pH 5.5; 100 μl of each mixed in vial immediately before running assay). After switching to the multi-channel array flow cell, the antibodies were injected over the activated chip in three 96-spot arrays for 10 minutes each. The remaining unconjugated active groups on the chip were then blocked by injecting 1M Ethanolamine pH 8.5 (Carterra) for 7 minutes using the single channel flow cell. The resulting sensor chip contained three spots for each antibody, at three different densities. Two independent experiments were performed as follows, resulting in an N of between one and six determinations for each antibody. Spots that yielded less than 25 RU of analyte binding were excluded from further analysis.
After priming with running buffer (HBS-TE, Carterra) with 0.5 mg/ml BSA (Sigma), the immobilized anti-MerTK antibodies were tested for their ability to bind to several forms of recombinant MerTK extracellular domain, including human, cynomolgus, and mouse orthologs as described above. Estimates of affinity were generated by injecting each analyte over the entire antibody array using the single channel flow cell. MerTK analytes were diluted with running buffer, in a series of six, three-fold serial dilutions starting from 1 μM for human and cynomolgus MerTK, and 600 nM for mouse MerTK. Analytes were injected for 5 minutes, and dissociation was followed for 10 minutes. After each analyte injection, antibodies were regenerated with either Protein A/G Elution Buffer (Thermo) with 1M NaCl (Teknova), or with 10 mM Glycine pH 2.5. Three buffer blanks were run between each series (one species per series). Data were processed and analyzed using NextGenKIT high-throughput kinetics analysis software (Carterra).

[2] = molecular target: T2, endogenous murine MerTK on bone marrow-derived macrophages (mouse, UniProt Q60805 19-994); assay: FACS, mouse BMDM, WT minus MerTK KO
T2 construct: whole, on cells; MFI on MerTK KO BMDM subtracted; also called BMDM WT-KO
T2 sequence (looked up): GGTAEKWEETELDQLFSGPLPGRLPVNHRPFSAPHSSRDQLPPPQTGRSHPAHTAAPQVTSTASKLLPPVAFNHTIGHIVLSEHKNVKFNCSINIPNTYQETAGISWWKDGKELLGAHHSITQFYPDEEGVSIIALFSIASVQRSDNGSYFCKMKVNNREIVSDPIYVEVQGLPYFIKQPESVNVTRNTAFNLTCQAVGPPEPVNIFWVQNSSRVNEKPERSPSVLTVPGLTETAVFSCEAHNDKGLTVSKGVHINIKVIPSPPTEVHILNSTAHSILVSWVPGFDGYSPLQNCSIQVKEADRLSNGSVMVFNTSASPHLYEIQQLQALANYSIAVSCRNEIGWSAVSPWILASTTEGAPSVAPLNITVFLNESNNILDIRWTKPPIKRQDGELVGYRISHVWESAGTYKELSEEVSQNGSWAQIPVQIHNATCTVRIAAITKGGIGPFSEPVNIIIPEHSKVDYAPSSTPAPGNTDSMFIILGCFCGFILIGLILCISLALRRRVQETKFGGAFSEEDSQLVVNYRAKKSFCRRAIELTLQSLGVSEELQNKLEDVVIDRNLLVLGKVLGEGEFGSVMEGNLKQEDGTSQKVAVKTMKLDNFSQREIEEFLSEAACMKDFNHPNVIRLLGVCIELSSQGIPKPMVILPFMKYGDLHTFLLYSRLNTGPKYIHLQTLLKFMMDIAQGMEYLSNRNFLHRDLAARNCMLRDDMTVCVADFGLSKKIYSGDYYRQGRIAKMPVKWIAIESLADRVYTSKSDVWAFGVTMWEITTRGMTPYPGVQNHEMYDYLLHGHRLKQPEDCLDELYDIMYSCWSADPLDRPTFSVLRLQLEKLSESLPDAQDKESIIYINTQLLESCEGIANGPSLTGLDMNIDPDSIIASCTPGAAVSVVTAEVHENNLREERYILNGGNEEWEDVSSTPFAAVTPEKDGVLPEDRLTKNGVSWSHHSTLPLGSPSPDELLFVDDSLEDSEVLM
Protocol: To determine whether recombinant anti-human MerTK antibodies of the present disclosure bind to human MerTK endogenously expressed on SK-MEL-5 cells and CHO cells overexpressing mouse MerTK (CHO-muMerTK OE cells), as compared to A375 and parental CHO cells as negative controls, the following experiments were performed. SK-MEL-5 cells, A375 cells, CHO-muMerTK OE cells, and CHO parental cells were plated at 100,000 cells/well. Anti-MerTK antibodies were added to the cells at 10 μg/ml. After 60 minutes on ice, cells were washed and then stained with PE-conjugated goat anti-human IgG antibody (Southern Biotech Cat #2040-09, Birmingham, AL) in the presence of Fc block solution on ice for 30 minutes, and then washed twice with cold FACS buffer (2% FBS in PBS). Mouse anti-human MerTK-PE conjugated (Biolegend, Clone 590H11G1E3) or anti-mouse MerTK-PE conjugated (ThermoFisher, Clone DS5MMER) antibodies were used as positive controls. Stained cells were acquired on a BD FACS Canto II cytometer and the mean fluorescence intensity (MFI) was calculated with FlowJo.
To confirm anti-MerTK antibody binding to endogenous murine MerTK, bone marrow-derived macrophages (BMDM) were isolated from MerTK wild type (WT) and knockout (KO) mice (The Jackson Laboratory, Cat #011122) using standard protocols. Briefly, cells isolated from the bone marrow were plated in the presence of 50 ng/ml M-CSF (R&D Systems, Cat #416-ML) for seven days to allow for differentiation into macrophages. Cell staining, FACs, and MFI were performed and calculated as described above.

[3] = molecular target: T3, His tag-conjugated recombinant ProS (human, UniProt P07225 42-676, limits assumed); assay: ELISA, captured Ab, ProS-His 10 ug/ml, no MerTK
T3 construct: bought; also called Protein S; ProS1 (R&D systems, Cat #9489-PS-100)
T3 sequence (looked up): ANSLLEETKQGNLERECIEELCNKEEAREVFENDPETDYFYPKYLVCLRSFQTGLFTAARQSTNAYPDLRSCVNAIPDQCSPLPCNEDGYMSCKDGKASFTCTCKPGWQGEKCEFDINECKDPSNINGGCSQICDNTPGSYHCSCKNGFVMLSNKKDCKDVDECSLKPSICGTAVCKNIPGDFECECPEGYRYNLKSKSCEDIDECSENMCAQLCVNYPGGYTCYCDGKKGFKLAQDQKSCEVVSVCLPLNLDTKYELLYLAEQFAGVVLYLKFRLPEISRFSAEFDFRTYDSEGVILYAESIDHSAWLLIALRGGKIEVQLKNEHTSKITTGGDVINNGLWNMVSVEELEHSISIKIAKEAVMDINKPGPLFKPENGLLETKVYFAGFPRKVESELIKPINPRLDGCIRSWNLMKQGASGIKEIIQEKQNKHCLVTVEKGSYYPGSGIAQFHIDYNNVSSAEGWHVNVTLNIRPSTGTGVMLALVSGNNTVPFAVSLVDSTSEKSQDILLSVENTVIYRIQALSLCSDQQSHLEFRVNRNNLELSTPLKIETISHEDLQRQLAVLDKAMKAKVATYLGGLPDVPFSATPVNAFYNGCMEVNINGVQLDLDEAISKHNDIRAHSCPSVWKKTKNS

MFI [2]: 412 MFI
binding result [3]: binds
B1: MTK-232 (antibody, human IgG1, V domains shown)
VH: EVQLQESGPSLVKPSQTLSLTCSVTGDSITSGYWNWIRKFPGNKLEYMGYINYSGSTNYNPSLKSRISITRDTSKNQYYLQLNSVTTEDTATYYCARWNYLYYFDYWGQGTTLTVSS
VL: DSVMTQSHKFMSTLVGDRVSITCKASQDVGTAVAWYQQKPGQSPKVLIYWASTRHTGVPDRFTGSGSGTDFTLTITNVQSEDLADYFCHQYSTYPYTFGGGTKLEIK
binding result [1]: no binding (tested: analyte up to 600 nM)
